The source of these data is patent US20200115430A1 (I2O THERAPEUTICS, published 2020).

Starred links: 1 amine or outer side, 2 acyl side, 3 side chain; linkers in the order of their positions; H or OH if unused. Positions of bridges follow the written chain, without caps; N, C: chain ends. Groups on a side chain read outwards from the residue. No end group written: not given here. *: point of attachment. C20 diacid = O=C(O)CCCCCCCCCCCCCCCCCCC(=O)*; C18 diacid = O=C(O)CCCCCCCCCCCCCCCCC(=O)*; γGlu = O=C(O)[C@H](CCC(=O)[*:2])N[*:1]

Sequences and labels used below:
B1: Pramlintide (peptide)
peptide: KCNTATCATQRLANFLVHSSNNFGPILPPTNVGSNTY-NH2
modifications: disulfide 2-7; ends not checked
B2: Compound A76 (peptide)
peptide: SCNTSTCATQRLANEK([γGlu-C18 diacid])HKSSNNFGPILPPTKVGSETY-NH2
modifications: disulfide 2-7; N-terminus assumed
SMILES: CC[C@H](C)[C@H](NC(=O)[C@@H]1CCCN1C(=O)CNC(=O)[C@H](Cc1ccccc1)NC(=O)[C@H](CC(N)=O)NC(=O)[C@H](CC(N)=O)NC(=O)[C@H](CO)NC(=O)[C@H](CO)NC(=O)[C@H](CCCCN)NC(=O)[C@H](Cc1c[nH]cn1)NC(=O)[C@H](CCCCNC(=O)CC[C@H](NC(=O)CCCCCCCCCCCCCCCCC(=O)O)C(=O)O)NC(=O)[C@H](CCC(=O)O)NC(=O)[C@H](CC(N)=O)NC(=O)[C@H](C)NC(=O)[C@H](CC(C)C)NC(=O)[C@H](CCCNC(=N)N)NC(=O)[C@H](CCC(N)=O)NC(=O)[C@@H](NC(=O)[C@H](C)NC(=O)[C@@H]1CSSC[C@H](NC(=O)[C@@H](N)CO)C(=O)N[C@@H](CC(N)=O)C(=O)N[C@@H]([C@@H](C)O)C(=O)N[C@@H](CO)C(=O)N[C@@H]([C@@H](C)O)C(=O)N1)[C@@H](C)O)C(=O)N[C@@H](CC(C)C)C(=O)N1CCC[C@H]1C(=O)N1CCC[C@H]1C(=O)N[C@H](C(=O)N[C@@H](CCCCN)C(=O)N[C@H](C(=O)NCC(=O)N[C@@H](CO)C(=O)N[C@@H](CCC(=O)O)C(=O)N[C@H](C(=O)N[C@@H](Cc1ccc(O)cc1)C(N)=O)[C@@H](C)O)C(C)C)[C@@H](C)O
B3: Compound A55 (peptide)
peptide: K(C18 diacid)CNTSTCATSRLANFLQKSSNNFGPILPPTKVGSETY-NH2
modifications: disulfide 2-7; N-terminus assumed
SMILES: CC[C@H](C)[C@H](NC(=O)[C@@H]1CCCN1C(=O)CNC(=O)[C@H](Cc1ccccc1)NC(=O)[C@H](CC(N)=O)NC(=O)[C@H](CC(N)=O)NC(=O)[C@H](CO)NC(=O)[C@H](CO)NC(=O)[C@H](CCCCN)NC(=O)[C@H](CCC(N)=O)NC(=O)[C@H](CC(C)C)NC(=O)[C@H](Cc1ccccc1)NC(=O)[C@H](CC(N)=O)NC(=O)[C@H](C)NC(=O)[C@H](CC(C)C)NC(=O)[C@H](CCCNC(=N)N)NC(=O)[C@H](CO)NC(=O)[C@@H](NC(=O)[C@H](C)NC(=O)[C@@H]1CSSC[C@H](NC(=O)[C@@H](N)CCCCNC(=O)CCCCCCCCCCCCCCCCC(=O)O)C(=O)N[C@@H](CC(N)=O)C(=O)N[C@@H]([C@@H](C)O)C(=O)N[C@@H](CO)C(=O)N[C@@H]([C@@H](C)O)C(=O)N1)[C@@H](C)O)C(=O)N[C@@H](CC(C)C)C(=O)N1CCC[C@H]1C(=O)N1CCC[C@H]1C(=O)N[C@H](C(=O)N[C@@H](CCCCN)C(=O)N[C@H](C(=O)NCC(=O)N[C@@H](CO)C(=O)N[C@@H](CCC(=O)O)C(=O)N[C@H](C(=O)N[C@@H](Cc1ccc(O)cc1)C(N)=O)[C@@H](C)O)C(C)C)[C@@H](C)O
B4: Compound A116 (peptide)
peptide: K([γGlu-C20 diacid])CNTSTCATSRLANFLQKSSNNFGPILPPTKVGSETY-NH2
modifications: disulfide 2-7; N-terminus assumed
SMILES: CC[C@H](C)[C@H](NC(=O)[C@@H]1CCCN1C(=O)CNC(=O)[C@H](Cc1ccccc1)NC(=O)[C@H](CC(N)=O)NC(=O)[C@H](CC(N)=O)NC(=O)[C@H](CO)NC(=O)[C@H](CO)NC(=O)[C@H](CCCCN)NC(=O)[C@H](CCC(N)=O)NC(=O)[C@H](CC(C)C)NC(=O)[C@H](Cc1ccccc1)NC(=O)[C@H](CC(N)=O)NC(=O)[C@H](C)NC(=O)[C@H](CC(C)C)NC(=O)[C@H](CCCNC(=N)N)NC(=O)[C@H](CO)NC(=O)[C@@H](NC(=O)[C@H](C)NC(=O)[C@@H]1CSSC[C@H](NC(=O)[C@@H](N)CCCCNC(=O)CC[C@H](NC(=O)CCCCCCCCCCCCCCCCCCC(=O)O)C(=O)O)C(=O)N[C@@H](CC(N)=O)C(=O)N[C@@H]([C@@H](C)O)C(=O)N[C@@H](CO)C(=O)N[C@@H]([C@@H](C)O)C(=O)N1)[C@@H](C)O)C(=O)N[C@@H](CC(C)C)C(=O)N1CCC[C@H]1C(=O)N1CCC[C@H]1C(=O)N[C@H](C(=O)N[C@@H](CCCCN)C(=O)N[C@H](C(=O)NCC(=O)N[C@@H](CO)C(=O)N[C@@H](CCC(=O)O)C(=O)N[C@H](C(=O)N[C@@H](Cc1ccc(O)cc1)C(N)=O)[C@@H](C)O)C(C)C)[C@@H](C)O
B5: Compound A73 (peptide)
peptide: SCNTSTCATQRLANEK([γGlu-C20 diacid])HKSSNNFGPILPPTKVGSETY-NH2
modifications: disulfide 2-7; N-terminus assumed
SMILES: CC[C@H](C)[C@H](NC(=O)[C@@H]1CCCN1C(=O)CNC(=O)[C@H](Cc1ccccc1)NC(=O)[C@H](CC(N)=O)NC(=O)[C@H](CC(N)=O)NC(=O)[C@H](CO)NC(=O)[C@H](CO)NC(=O)[C@H](CCCCN)NC(=O)[C@H](Cc1c[nH]cn1)NC(=O)[C@H](CCCCNC(=O)CC[C@H](NC(=O)CCCCCCCCCCCCCCCCCCC(=O)O)C(=O)O)NC(=O)[C@H](CCC(=O)O)NC(=O)[C@H](CC(N)=O)NC(=O)[C@H](C)NC(=O)[C@H](CC(C)C)NC(=O)[C@H](CCCNC(=N)N)NC(=O)[C@H](CCC(N)=O)NC(=O)[C@@H](NC(=O)[C@H](C)NC(=O)[C@@H]1CSSC[C@H](NC(=O)[C@@H](N)CO)C(=O)N[C@@H](CC(N)=O)C(=O)N[C@@H]([C@@H](C)O)C(=O)N[C@@H](CO)C(=O)N[C@@H]([C@@H](C)O)C(=O)N1)[C@@H](C)O)C(=O)N[C@@H](CC(C)C)C(=O)N1CCC[C@H]1C(=O)N1CCC[C@H]1C(=O)N[C@H](C(=O)N[C@@H](CCCCN)C(=O)N[C@H](C(=O)NCC(=O)N[C@@H](CO)C(=O)N[C@@H](CCC(=O)O)C(=O)N[C@H](C(=O)N[C@@H](Cc1ccc(O)cc1)C(N)=O)[C@@H](C)O)C(C)C)[C@@H](C)O
B6: Compound A114 (peptide)
peptide: K([γGlu-γGlu-C20 diacid])CNTSTCATSRLANFLQKSSNNFGPILPPTKVGSETY-NH2
modifications: disulfide 2-7; N-terminus assumed
SMILES: CC[C@H](C)[C@H](NC(=O)[C@@H]1CCCN1C(=O)CNC(=O)[C@H](Cc1ccccc1)NC(=O)[C@H](CC(N)=O)NC(=O)[C@H](CC(N)=O)NC(=O)[C@H](CO)NC(=O)[C@H](CO)NC(=O)[C@H](CCCCN)NC(=O)[C@H](CCC(N)=O)NC(=O)[C@H](CC(C)C)NC(=O)[C@H](Cc1ccccc1)NC(=O)[C@H](CC(N)=O)NC(=O)[C@H](C)NC(=O)[C@H](CC(C)C)NC(=O)[C@H](CCCNC(=N)N)NC(=O)[C@H](CO)NC(=O)[C@@H](NC(=O)[C@H](C)NC(=O)[C@@H]1CSSC[C@H](NC(=O)[C@@H](N)CCCCNC(=O)CC[C@H](NC(=O)CC[C@H](NC(=O)CCCCCCCCCCCCCCCCCCC(=O)O)C(=O)O)C(=O)O)C(=O)N[C@@H](CC(N)=O)C(=O)N[C@@H]([C@@H](C)O)C(=O)N[C@@H](CO)C(=O)N[C@@H]([C@@H](C)O)C(=O)N1)[C@@H](C)O)C(=O)N[C@@H](CC(C)C)C(=O)N1CCC[C@H]1C(=O)N1CCC[C@H]1C(=O)N[C@H](C(=O)N[C@@H](CCCCN)C(=O)N[C@H](C(=O)NCC(=O)N[C@@H](CO)C(=O)N[C@@H](CCC(=O)O)C(=O)N[C@H](C(=O)N[C@@H](Cc1ccc(O)cc1)C(N)=O)[C@@H](C)O)C(C)C)[C@@H](C)O

The target of one experiment is T1, human calcitonin receptor (human, UniProt P30988 25-474).
T1 sequence (looked up): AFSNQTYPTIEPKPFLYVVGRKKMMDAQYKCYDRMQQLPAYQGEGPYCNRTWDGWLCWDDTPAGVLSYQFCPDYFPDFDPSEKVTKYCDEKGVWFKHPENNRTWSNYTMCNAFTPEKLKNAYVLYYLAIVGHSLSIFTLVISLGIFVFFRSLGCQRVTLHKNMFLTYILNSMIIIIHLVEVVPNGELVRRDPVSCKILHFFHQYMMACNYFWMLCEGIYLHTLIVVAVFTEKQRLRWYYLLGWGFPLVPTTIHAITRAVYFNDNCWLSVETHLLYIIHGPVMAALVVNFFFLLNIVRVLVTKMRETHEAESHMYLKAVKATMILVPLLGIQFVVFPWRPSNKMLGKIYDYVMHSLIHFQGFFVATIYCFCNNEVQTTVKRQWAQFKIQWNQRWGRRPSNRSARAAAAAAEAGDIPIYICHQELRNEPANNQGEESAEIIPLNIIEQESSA
Description: cell-based or functional assay.
For the molecule B1, the “pEC50 (cAMP accumulation), 0% HSA” value is 11.4 pEC50; the “pEC50 (cAMP accumulation), 0.1% HSA” value came to 11.2 pEC50; the “pEC50 (cAMP accumulation), 4% HSA” value is 11.1 pEC50.
Consider B2, for which the “pEC50 (cAMP accumulation), 0% HSA” value amounted to 10.5 pEC50; the “pEC50 (cAMP accumulation), 0.1% HSA” value stood at 9.4 pEC50; the “pEC50 (cAMP accumulation), 4% HSA” value was determined as 8.1 pEC50.
As for B3, the “pEC50 (cAMP accumulation), 0% HSA” value is 11.3 pEC50; the “pEC50 (cAMP accumulation), 0.1% HSA” value was 10.2 pEC50; the “pEC50 (cAMP accumulation), 4% HSA” value amounted to 8.8 pEC50.
Turning to B4, the “pEC50 (cAMP accumulation), 0% HSA” value is 11.7 pEC50; the “pEC50 (cAMP accumulation), 0.1% HSA” value is 10.5 pEC50; the “pEC50 (cAMP accumulation), 4% HSA” value was 9.3 pEC50.
For B5, in that order: 11.3 pEC50, 9.6 pEC50 and 7.9 pEC50.
For B6, in that order: 11.7 pEC50, 10.4 pEC50 and 8.8 pEC50.

In another experiment the target is T2, human amylin 3 receptor (human, UniProt P30988 25-474; O60896 24-148).
T2 sequence (looked up) 1: T1 sequence (looked up)
T2 sequence (looked up) 2: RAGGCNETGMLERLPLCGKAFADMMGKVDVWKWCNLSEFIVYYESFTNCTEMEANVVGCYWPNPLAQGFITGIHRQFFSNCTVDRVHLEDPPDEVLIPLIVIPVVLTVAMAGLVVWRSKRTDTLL
Description: cell-based or functional assay.
As for B1, the “pEC50 (cAMP accumulation), 0% HSA” value worked out at 12.5 pEC50; the “pEC50 (cAMP accumulation), 0.1% HSA” value is 12.6 pEC50; the “pEC50 (cAMP accumulation), 4% HSA” value was determined as 12.5 pEC50.
As for B2, the “pEC50 (cAMP accumulation), 0% HSA” value amounted to 11.7 pEC50; the “pEC50 (cAMP accumulation), 0.1% HSA” value worked out at 10.5 pEC50; the “pEC50 (cAMP accumulation), 4% HSA” value was 8.7 pEC50.
On to B3, for which the “pEC50 (cAMP accumulation), 0% HSA” value came out at 12.2 pEC50; the “pEC50 (cAMP accumulation), 0.1% HSA” value amounted to 11.2 pEC50; the “pEC50 (cAMP accumulation), 4% HSA” value turned out to be 9.6 pEC50.
For B4, in that order: 12 pEC50, 10.8 pEC50 and 9.5 pEC50.
On to B5, for which the “pEC50 (cAMP accumulation), 0% HSA” value was found to be 12.1 pEC50; the “pEC50 (cAMP accumulation), 0.1% HSA” value was determined as 10.6 pEC50; the “pEC50 (cAMP accumulation), 4% HSA” value was 8.8 pEC50.
For B6, in that order: 12.2 pEC50, 10.7 pEC50 and 9.5 pEC50.
